For this test, the system named is activated C1s. Description: Cross reaction test of fluorescence detection method for activated C1s. It counts as biochemical. The note with it: for Measured concentration: interferent in PBS: double-stranded C1r 660 μg/mL, MASP1 and MASP2 5000 μg/mL; for Cross reaction rate (%): measured value/theoretical value×100%. How it is done: • 1. Preparation of a buffer: 1) Binding Buffer: 0.1 M morpholinoethanesulfonic acid (MES, pH=5.0); • 2) Washing Buffer: TBS containing 0.05% Tween 20; • 3) Blocking Buffer: containing 0.05 M Tris, 1.0% BSA, and 0.05% Tween 20; • 4) Desired Buffer: Tris buffer containing 0.05% Tween 20 and BSA; and • 5) Tris Buffer: 0.05 M Tris, 0.15 M NaCl, and 0.2% (w/v) polyethylene glycol 8000. • 2. Preparation of immunomagnetic beads (C1s recombinant antibody-coupled magnetic beads) • (1) 10 mg of magnetic beads (Merck carboxyl magnetic beads, with a particle size of 1 μm) were washed 3 times with 1 mL of Binding Buffer, and vortexed to mix evenly. • (2) 20 μg of the C1s recombinant antibody obtained in Example 1 was added into every 1 mg of the magnetic beads, mixed well, and vortexed at a room temperature (25° C.) for 15 min. • (3) 50 μg of a coupling agent was added into every 1 mg of the magnetic beads, mixed well, and vortexed at a room temperature for 1 h. • (4) 1 mL of Binding Buffer was added and vortexed at a room temperature for 3 h. • (5) The magnetic beads were washed 4 times with 0.5 mL of Washing Buffer. • (6) The magnetic beads were resuspended with 1 mL of Desired Buffer to obtain C1s recombinant antibody-coupled magnetic beads with a concentration of 5 mg/mL, and stored at 4° C. until later use. • 3. Detection of the enzymatic activity of activated C1s • (1) 60 μL of the C1s recombinant antibody-coupled magnetic beads were stirred evenly, subjected to magnetic suction to remove a supernatant, added with 200 μL of PBS to mix well, subjected to the magnetic suction to remove a supernatant, and washed repeatedly 2 times. • (2) 10 μL of a sample to be tested or activated C1s standards with different concentrations were diluted to 100 μL with PBS, and mixed vertically with the C1s recombinant antibody-coupled magnetic beads at a room temperature for 10 min. The magnetic suction was performed to discard a supernatant. According to the enzymatic activity of the C1s standard determined in Example 4, the enzymatic activity conversion of the C1s standards with different concentrations is shown in Table 2.
• (3) The magnetic beads were repeatedly washed 3 times with 100 μL of PBS. • (4) The magnetic beads were resuspended with 90 μL of Tris buffer. • (5) 10 μL of substrate peptide 3 was added at a concentration of 1 μg/mL. • (6) The detection was performed with a microplate reader at 360/40 excitation light wave and 460/40 emission light wave, with a best reaction time of 1 h as a detection point, and the fluorescence signals were measured and recorded. The straight line fitting was performed by taking a C1s enzymatic activity as an abscissa and a fluorescence signal as an ordinate with a double logarithmic Log-Log mathematical model and using a least square method to plot a standard curve.
In this example, the specificity of the activated C1s was tested. The interfering antigenic substances (complement analogues) that might exist in serum were detected, such as double-stranded C1r, MASP1, and MASP2. The double-stranded C1r, MASP1, and MASP2 were separately diluted with PBS, and the diluted concentrations were 0.66 mg/mL, 5 mg/mL, and 5 mg/mL, successively. The complement analogues were detected based on the steps of Example 5. A cross reaction rate of various substances was calculated. Cross reaction rate=measured value/theoretical value×100%. […] The cross reaction rates were all less than 0.5%.

B1: MASP2: interfering antigenic substance (complement analogue), from Abnova (protein)
chain: TPLGPKWPEPVFGRLASPGFPGEYANDQERRWTLTAPPGYRLRLYFTHFDLELSHLCEYDFVKLSSGAKVLATLCGQESTDTERAPGKDTFYSLGSSLDITFRSDYSNEKPFTGFEAFYAAEDIDECQVAPGEAPTCDHHCHNHLGGFYCSCRAGYVLHRNKRTCSALCSGQVFTQRSGELSSPEYPRPYPKLSSCTYSISLEEGFSVILDFVESFDVETHPETLCPYDFLKIQTDREEHGPFCGKTLPHRIETKSNTVTITFVTDESGDHTGWKIHYTSTAQPCPYPMAPPNGHVSPVQAKYILKDSFSIFCETGYELLQGHLPLKSFTAVCQKDGSWDRPMPACSIVDCGPPDDLPSGRVEYITGPGVTTYKAVIQYSCEETFYTMKVNDGKYVCEADGFWTSSKGEKSLPVCEPVCGLSARTTGGRIYGGQKAKPGDFPWQVLILGGTTAAGALLYDNWVLTAAHAVYEQKHDASALDIRMGTLKRLSPHYTQAWSEAVFIHEGYTHDAGFDNDIALIKLNNKVVINSNITPICLPRKEAESFMRTDDIGTASGWGLTQRGFLARNLMYVDIPIVDHQKCTAAYEKPPYPRGSVTANMLCAGLESGGKDSCRGDSGGALVFLDSETERWFVGGIVSWGSMNCGEAGQYGVYTKVINYIPWIENIISDF
On to B1, for which the Measured concentration stood at 1.64 pmol/min/µg and the “Cross reaction rate (%)” value is 0.04%. Besides, the Measured concentration (C1s equivalent in brackets) came to 1.8 µg/mL.

B2: MASP1: interfering antigenic substance (complement analogue), from Abnova (protein)
chain: HTVELNNMFGQIQSPGYPDSYPSDSEVTWNITVPDGFRIKLYFMHFNLESSYLCEYDYVKVETEDQVLATFCGRETTDTEQTPGQEVVLSPGSFMSITFRSDFSNEERFTGFDAHYMAVDVDECKEREDEELSCDHYCHNYIGGYYCSCRFGYILHTDNRTCRVECSDNLFTQRTGVITSPDFPNPYPKSSECLYTIELEEGFMVNLQFEDIFDIEDHPEVPCPYDYIKIKVGPKVLGPFCGEKAPEPISTQSHSVLILFHSDNSGENRGWRLSYRAAGNECPELQPPVHGKIEPSQAKYFFKDQVLVSCDTGYKVLKDNVEMDTFQIECLKDGTWSNKIPTCKIVDCRAPGELEHGLITFSTRNNLTTYKSEIKYSCQEPYYKMLNNNTGIYTCSAQGVWMNKVLGRSLPTCLPVCGLPKFSRKLMARIFNGRPAQKGTTPWIAMLSHLNGQPFCGGSLLGSSWIVTAAHCLHQSLDPEDPTLRDSDLLSPSDFKIILGKHWRLRSDENEQHLGVKHTTLHPQYDPNTFENDVALVELLESPVLNAFVMPICLPEGPQQEGAMVIVSGWGKQFLQRFPETLMEIEIPIVDHSTCQKAYAPLKKKVTRDMICAGEKEGGKDACAGDSGGPMVTLNRERGQWYLVGTVSWGDDCGKKDRYGVYSYIHHNKDWIQRVTGVRN
As to B2, the Measured concentration worked out at 1.82 pmol/min/µg and the “Cross reaction rate (%)” value is 0.04%. In addition, the Measured concentration (C1s equivalent in brackets) was 2 µg/mL.

B3: Double-stranded C1r: interfering antigenic substance (complement analogue) that might exist in serum (protein)
chain: SIPIPQKLFGEVTSPLFPKPYPNNFETTTVITVPTGYRVKLVFQQFDLEPSEGCFYDYVKISADKKSLGRFCGQLGSPLGNPPGKKEFMSQGNKMLLTFHTDFSNEENGTIMFYKGFLAYYQAVDLDECASRSKSGEEDPQPQCQHLCHNYVGGYFCSCRPGYELQEDTHSCQAECSSELYTEASGYISSLEYPRSYPPDLRCNYSIRVERGLTLHLKFLEPFDIDDHQQVHCPYDQLQIYANGKNIGEFCGKQRPPDLDTSSNAVDLLFFTDESGDSRGWKLRYTTEIIKCPQPKTLDEFTIIQNLQPQYQFRDYFIATCKQGYQLIEGNQVLHSFTAVCQDDGTWHRAMPRCKIKDCGQPRNLPNGDFRYTTTMGVNTYKARIQYYCHEPYYKMQTRAGSRESEQGVYTCTAQGIWKNEQKGEKIPRCLPVCGKPVNPVEQRQRIIGGQKAKMGNFPWQVFTNIHGRGGGALLGDRWILTAAHTLYPKEHEAQSNASLDVFLGHTNVEELMKLGNHPIRRVSVHPDYRQDESYNFEGDIALLELENSVTLGPNLLPICLPDNDTFYDLGLMGYVSGFGVMEEKIAHDLRFVRLPVANPQACENWLRGKNRMDVFSQNMFCAGHPSLKQDACQGDSGGVFAVRDPNTDRWVATGIVSWGIGCSRGYGFYTKVLNYVDWIKKEMEEED
In the case of B3, the Measured concentration is 0.91 pmol/min/µg and the “Cross reaction rate (%)” value is 0.15%. Besides, the Measured concentration (C1s equivalent in brackets) worked out at 1 µg/mL. Further, for the setting “listed as double-stranded C1r”, the “Cross reaction rate (%)” value worked out at 0.3%.

These data come from patent US20250012721A1, “FLUORESCENCE DETECTION KIT FOR ACTIVATED COMPLEMENT C1s, DETECTION METHOD USING SAME, AND USE THEREOF” (JIANGSU UNIVERSITY, priority 2022, published 2025).
